Here are results for 28 molecules from patent publication US20240116985A1, “STAPLED PEPTIDES AND METHODS THEREOF” (priority 2020, published 2024).

Test [1] concerns the target full-length beta-Catenin (Uniprot ID P35222) (Homo sapiens (Human)) (UniProt P35222). Kind of test: fluorescence polarization competition vs 5FAM-TCF4(10-53) on full-length beta-catenin. In general terms: Polarisation of emitted light reports the rotation of a fluorescent probe.
Target sequence in this assay (P35222 2-781 limits assumed): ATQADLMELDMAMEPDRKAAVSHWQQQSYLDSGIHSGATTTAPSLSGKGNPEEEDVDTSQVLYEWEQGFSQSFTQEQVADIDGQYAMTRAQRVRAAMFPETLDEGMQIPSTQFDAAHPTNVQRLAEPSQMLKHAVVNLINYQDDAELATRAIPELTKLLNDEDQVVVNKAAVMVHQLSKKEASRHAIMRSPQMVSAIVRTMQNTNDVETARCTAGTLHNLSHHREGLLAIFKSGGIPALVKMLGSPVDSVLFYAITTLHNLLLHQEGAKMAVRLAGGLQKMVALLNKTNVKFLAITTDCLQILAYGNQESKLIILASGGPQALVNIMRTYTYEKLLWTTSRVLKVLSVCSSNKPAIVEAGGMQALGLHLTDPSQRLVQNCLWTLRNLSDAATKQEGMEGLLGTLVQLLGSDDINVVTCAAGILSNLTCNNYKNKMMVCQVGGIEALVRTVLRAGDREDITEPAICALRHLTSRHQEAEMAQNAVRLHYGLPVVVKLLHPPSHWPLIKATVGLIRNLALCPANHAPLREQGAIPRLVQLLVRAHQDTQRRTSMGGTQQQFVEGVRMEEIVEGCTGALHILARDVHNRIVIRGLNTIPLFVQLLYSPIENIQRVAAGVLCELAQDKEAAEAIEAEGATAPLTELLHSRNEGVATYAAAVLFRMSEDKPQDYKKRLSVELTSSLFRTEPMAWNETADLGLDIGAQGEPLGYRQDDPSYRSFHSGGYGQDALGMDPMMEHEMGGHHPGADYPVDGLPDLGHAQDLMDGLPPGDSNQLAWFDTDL
Test [2] shares this target. Briefly: fluorescence polarization competition; full-length beta-catenin with 5FAM-labeled TCF4 (10-53) probe as competitor.
Target sequence in this assay (P35222 whole entry): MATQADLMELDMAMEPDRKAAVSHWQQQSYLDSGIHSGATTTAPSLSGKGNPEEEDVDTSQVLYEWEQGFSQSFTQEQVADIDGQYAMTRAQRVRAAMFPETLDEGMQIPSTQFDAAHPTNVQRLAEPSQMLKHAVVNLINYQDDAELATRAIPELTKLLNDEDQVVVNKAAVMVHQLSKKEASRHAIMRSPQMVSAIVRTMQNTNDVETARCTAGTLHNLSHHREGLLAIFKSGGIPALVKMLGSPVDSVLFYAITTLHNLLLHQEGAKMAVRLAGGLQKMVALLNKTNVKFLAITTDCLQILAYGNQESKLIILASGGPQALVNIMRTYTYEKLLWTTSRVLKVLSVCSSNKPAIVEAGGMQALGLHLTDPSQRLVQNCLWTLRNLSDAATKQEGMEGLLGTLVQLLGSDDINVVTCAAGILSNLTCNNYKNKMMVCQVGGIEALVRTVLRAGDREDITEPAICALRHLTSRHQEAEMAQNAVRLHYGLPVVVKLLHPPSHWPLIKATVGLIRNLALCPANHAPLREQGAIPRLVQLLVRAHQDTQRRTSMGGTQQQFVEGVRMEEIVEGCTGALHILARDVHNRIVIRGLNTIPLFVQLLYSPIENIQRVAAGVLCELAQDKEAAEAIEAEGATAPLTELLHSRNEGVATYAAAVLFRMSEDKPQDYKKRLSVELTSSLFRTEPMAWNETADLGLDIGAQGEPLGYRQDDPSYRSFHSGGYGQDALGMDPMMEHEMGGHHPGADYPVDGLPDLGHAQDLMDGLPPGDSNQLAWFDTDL
Test [3] shares this target. Kind of test: fluorescence polarization competition; peptide titrated against 10 nM full-length beta-catenin + 10 nM 5FAM-TCF4(10-53) probe.
Target sequence in this assay (P35222 whole entry): as above
Test [4] shares this target. Briefly: fluorescence polarization competition; full-length beta-catenin, competitor 5FAM-TCF4 10-53.
Test [5] has the same target. Briefly: fluorescence polarization competition; full-length beta-catenin, competitor probe 5FAM-TCF4(10-53).
Target sequence in this assay (P35222 2-781 limits assumed): as the sequence (P35222 2-781 limits assumed) above
Test [6] has the same target. Briefly: fluorescence polarization competition; displaces 5FAM-TCF4(10-53) from full-length beta-catenin.
Target sequence in this assay (P35222 2-781 limits assumed): as above
Test [7] has the same target. Kind of test: fluorescence polarization competition; 10 nM full-length beta-catenin + 10 nM 5FAM-TCF4(10-53) probe.
Target sequence in this assay (P35222 whole entry): as the sequence (P35222 whole entry) above

Starred links: 1 amine or outer side, 2 acyl side, 3 side chain; linkers in the order of their positions; H or OH if unused. Positions of bridges follow the written chain, without caps; N, C: chain ends. Non-standard residues stand in square brackets, D forms with d. Primed or numbered codes have the meaning given here. *: point of attachment. PyrS2″ = (S)-3-amino-1-((pent-4-en-1-yloxy)carbonyl)pyrrolidine-3-carboxylic acid (stapling residue), C=CCCCOC(=O)N1CC[C@@](N[*:1])(C(=O)[*:2])C1; Tf = trifluoromethylsulfonyl on Dap side-chain N ([Tf]Dap = (S)-2-amino-3-((trifluoromethyl)sulfonamido)propanoic acid), O=S(=O)(C(F)(F)F)*; B5(16) = 2-amino-2-(pent-4-en-1-yl)hept-6-enoic acid = 2,2-bis(4-pentenyl)glycine (stitching residue), C=CCCCC(CCCC=C)(N[*:1])C(=O)[*:2]; B5(18) = 2,2-bis(4-pentenyl)glycine (2-amino-2-(pent-4-en-1-yl)hept-6-enoic acid), stitching residue, C=CCCCC(CCCC=C)(N[*:1])C(=O)[*:2]; B5(4) = 2,2-bis(4-pentenyl)glycine = 2-amino-2-(pent-4-en-1-yl)hept-6-enoic acid (stitching residue), C=CCCCC(CCCC=C)(N[*:1])C(=O)[*:2]; B5(5) = 2,2-bis(4-pentenyl)glycine, 2-amino-2-(pent-4-en-1-yl)hept-6-enoic acid (stitching residue), C=CCCCC(CCCC=C)(N[*:1])C(=O)[*:2]; TfeGA = (S)-2-amino-3-((carboxymethyl)(2,2,2-trifluoroethyl)amino)propanoic acid, O=C([C@H](CN(CC(=O)[*:3])CC(F)(F)F)N[*:1])[*:2]; B5(25) = 2-amino-2-(pent-4-en-1-yl)hept-6-enoic acid (stitching residue), C=CCCCC(CCCC=C)(N[*:1])C(=O)[*:2]; EtGA = (S)-2-amino-3-((carboxymethyl)(ethyl)amino)propanoic acid, CCN(CC(=O)[*:3])C[C@H](N[*:1])C(=O)[*:2]; B5(3) = 2,2-bis(4-pentenyl)glycine (stitching residue), C=CCCCC(CCCC=C)(N[*:1])C(=O)[*:2]; Phe(3-COOH) = N[C@@H](Cc1cccc(C(=O)O)c1)C(=O)O; Phe(2-Cl) = N[C@@H](Cc1ccccc1Cl)C(=O)O; Bta = N[C@@H](Cc1csc2ccccc12)C(=O)O; αAllylPro = C=CC[C@@]1(C(=O)O)CCCN1; tBuAla = CC(C)(C)C[C@H](N)C(=O)O; 3Thi = N[C@@H](Cc1ccsc1)C(=O)O; Cha = N[C@@H](CC1CCCCC1)C(=O)O; Cit = NC(=O)NCCC[C@H](N)C(=O)O; S8 = C=CCCCCCC[C@](C)(N)C(=O)O; hSer = N[C@@H](CCO)C(=O)O; Dap = NC[C@H](N)C(=O)O

Broadly, the IC50 is the concentration that inhibits the measured activity by half. As a reminder, the EC50 is the concentration giving half of the maximal effect.

B1: I-966 (peptide)
peptide: Ac-[αAllylPro]D[tBuAla][B5(25)]D[EtGA]AAFS[PyrS2″][3Thi][Bta]Q-NH2
modifications: staple 1-4, 4-11; also: earlier-eluting HPLC staple isomer
Take B1: the half-inhibitory concentration (IC50) in test [1] worked out at 2020 nM. Also, the EC50 in test [2] amounted to 2020 nM.

B2: I-967 (peptide)
peptide: Ac-[αAllylPro]D[tBuAla][B5(25)]D[EtGA]AAFS[PyrS2″][3Thi][Bta]Q-NH2
modifications: staple 1-4, 4-11; not fully specified; printed as Ac-PL3-Asp-Npg-B5-Asp-EtGA-Ala-Ala-Phe-Ser-PyrS2-3Thi-BztA-Gln-NH2
For B2, the IC50 in test [1] turned out to be 1740 nM. For the same molecule, the EC50 in test [2] amounted to 1740 nM.

B3: I-631 (peptide)
peptide: Ac-[αAllylPro]DI[B5(4)][Dap](Tf)EAAFQ[S8]F[Bta]Q-NH2
modifications: staple 1-4, 4-11
As to B3, in test [3], the half-maximal effective concentration (EC50) turned out to be 5000 nM. In test [4], this molecule had an IC50 of 5000 nM.

B4: I-995 (peptide)
peptide: Ac-[αAllylPro]D[tBuAla][B5(3)]D[TfeGA]AAFS[S8][Phe(2-Cl)][Bta]Q-NH2
modifications: staple 1-4, 4-11
B4 gave an IC50 in test [5] of 55 nM. For the same molecule, the EC50 in test [2] came out at 55 nM.

B5: I-982 (peptide)
peptide: Ac-[αAllylPro]D[tBuAla][B5(3)]D[Phe(3-COOH)]AAFF[PyrS2″][3Thi][Bta]S-NH2
modifications: staple 1-4, 4-11; also: earlier eluting HPLC isomer
In the case of B5, in test [5], the IC50 came out at 190 nM. For the same molecule, the concentration for a half-maximal effect (EC50) in test [2] came to 190 nM.

B6: I-980 (peptide)
peptide: Ac-[αAllylPro]D[tBuAla][B5(4)]D[Phe(3-COOH)]AAFT[PyrS2″][3Thi][Bta]Q-NH2
modifications: staple 1-4, 4-11; also: earlier eluting HPLC staple isomer
In the case of B6, in test [5], the IC50 was 221 nM. Moreover, in test [2], the EC50 was determined as 221 nM.

B7: I-978 (peptide)
peptide: Ac-[αAllylPro]D[tBuAla][B5(4)]D[Phe(3-COOH)]AAFS[PyrS2″][3Thi][Bta]Q-NH2
modifications: staple 1-4, 4-11; also: earlier eluting HPLC staple isomer
Consider B7, for which the 50% inhibitory concentration (IC50) in test [5] turned out to be 112 nM. In test [2], this molecule showed an EC50 of 112 nM.

B8: I-1014 (peptide)
peptide: Ac-[αAllylPro]D[tBuAla][B5(5)]DNAAFT[PyrS2″][Phe(2-Cl)][Bta]Q-NH2
modifications: staple 1-4, 4-11
B8 registered a half-maximal effective concentration (EC50) in test [6] of 19 nM. In addition, in test [7], the IC50 is 19 nM.

B9: I-632 (peptide)
peptide: Ac-[αAllylPro][Dap](Tf)I[B5(4)]DEAAFQ[S8]F[Bta]Q-NH2
modifications: staple 1-4, 4-11
Take B9: in test [3], the EC50 was determined as 5000 nM. This molecule also came in with an IC50 in test [4] of 5000 nM.

B10: I-630 (peptide)
peptide: Ac-[αAllylPro]DI[B5(4)][Dap](Tf)EAAFQ[S8]F[Bta]Q-NH2
modifications: staple 1-4, 4-11
For the molecule B10, the concentration for a half-maximal effect (EC50) in test [3] is 5000 nM. The IC50 in test [4] was determined as 5000 nM.

B11: I-981 (peptide)
peptide: Ac-[αAllylPro]D[tBuAla][B5(4)]D[Phe(3-COOH)]AAFT[PyrS2″][3Thi][Bta]Q-NH2
modifications: staple 1-4, 4-11; also: later eluting HPLC staple isomer
Molecule B11 showed an IC50 in test [5] of 374 nM. The molecule also came in with a concentration for a half-maximal effect (EC50) in test [2] of 199 nM.

B12: I-969 (peptide)
peptide: Ac-[αAllylPro]D[tBuAla][B5(25)]D[EtGA]AAFT[PyrS2″][3Thi][Bta]Q-NH2
modifications: staple 1-4, 4-11; not fully specified; printed as Ac-PL3-Asp-Npg-B5-Asp-EtGA-Ala-Ala-Phe-Thr-PyrS2-3Thi-BztA-Gln-NH2
Molecule B12 registered an IC50 in test [1] of 2320 nM. For the same molecule, the concentration giving a half-maximal response (EC50) in test [2] stood at 2320 nM.

B13: I-989 (peptide)
peptide: Ac-[αAllylPro]D[tBuAla][B5(3)]D[TfeGA]AAFF[PyrS2″]Y[Bta]Q-NH2
modifications: staple 1-4, 4-11
With B13, in test [5], the IC50 was found to be 87 nM. In test [2], this molecule came in with an EC50 of 87 nM.

B14: I-975 (peptide)
peptide: Ac-[αAllylPro]D[tBuAla][B5(4)]D[EtGA]AAFS[PyrS2″][3Thi][Bta]S-NH2
modifications: staple 1-4, 4-11; also: later eluting HPLC staple isomer
With B14, in test [1], the IC50 amounted to 2240 nM. In test [2], this molecule gave an EC50 of 1710 nM.

B15: I-968 (peptide)
peptide: Ac-[αAllylPro]D[tBuAla][B5(25)]D[EtGA]AAFT[PyrS2″][3Thi][Bta]Q-NH2
modifications: staple 1-4, 4-11; also: earlier-eluting HPLC staple isomer
B15 registered a half-inhibitory concentration (IC50) in test [1] of 2980 nM. In addition, the 50% effective concentration (EC50) in test [2] was 2980 nM.

B16: I-984 (peptide)
peptide: Ac-[αAllylPro]D[tBuAla][B5(3)]D[Phe(3-COOH)]AAFS[PyrS2″][3Thi][Bta]S-NH2
modifications: staple 1-4, 4-11; also: earlier eluting HPLC isomer
In turn, B16 showed an IC50 in test [5] of 179 nM. The molecule further gave a concentration for a half-maximal effect (EC50) in test [2] of 179 nM.

B17: I-992 (peptide)
peptide: Ac-[αAllylPro]D[tBuAla][B5(3)]D[TfeGA]AAFF[PyrS2″][Phe(2-Cl)][Bta][hSer]-NH2
modifications: staple 1-4, 4-11
Consider B17, for which the half-inhibitory concentration (IC50) in test [5] worked out at 59 nM. The concentration giving a half-maximal response (EC50) in test [2] came out at 59 nM.

B18: I-983 (peptide)
peptide: Ac-[αAllylPro]D[tBuAla][B5(3)]D[Phe(3-COOH)]AAFF[PyrS2″][3Thi][Bta]S-NH2
modifications: staple 1-4, 4-11; also: later eluting HPLC isomer
B18: the half-inhibitory concentration (IC50) in test [5] worked out at 118 nM. Also, the half-maximal effective concentration (EC50) in test [2] was determined as 118 nM.

B19: I-991 (peptide)
peptide: Ac-[αAllylPro]D[tBuAla][B5(3)]D[TfeGA]AAFF[PyrS2″][Phe(2-Cl)][Bta]T-NH2
modifications: staple 1-4, 4-11
In test [5], B19 yielded an IC50 of 51 nM. This molecule also yielded a concentration for a half-maximal effect (EC50) in test [2] of 51 nM.

B20: I-979 (peptide)
peptide: Ac-[αAllylPro]D[tBuAla][B5(4)]D[Phe(3-COOH)]AAFS[PyrS2″][3Thi][Bta]Q-NH2
modifications: staple 1-4, 4-11; also: later eluting HPLC staple isomer
As to B20, the IC50 in test [5] is 240 nM. Further, the EC50 in test [2] worked out at 240 nM.

B21: I-627 (peptide)
peptide: Ac-[αAllylPro]D[Cha][B5(4)]DEAAFN[S8]F[Bta]-NH2
modifications: staple 1-4, 4-11
As for B21, the concentration giving a half-maximal response (EC50) in test [3] worked out at 338 nM. The molecule also gave a half-inhibitory concentration (IC50) in test [4] of 338 nM.

B22: I-1018 (peptide)
peptide: Ac-[αAllylPro]D[tBuAla][B5(5)]DNAAFS[PyrS2″][Phe(2-Cl)][Bta]Q-NH2
modifications: staple 1-4, 4-11
Molecule B22 showed an EC50 in test [6] of 26 nM. Further, the IC50 in test [7] was 26 nM.

B23: I-626 (peptide)
peptide: Ac-[αAllylPro]D[Cha][B5(4)]DEAAFN[S8]F[Bta]-NH2
modifications: staple 1-4, 4-11; also: earlier-eluting staple isomer
Turning to B23, the EC50 in test [3] turned out to be 5000 nM. In test [4], this molecule registered a half-inhibitory concentration (IC50) of 5000 nM.

B24: I-985 (peptide)
peptide: Ac-[αAllylPro]D[tBuAla][B5(3)]D[Phe(3-COOH)]AAFS[PyrS2″][3Thi][Bta]S-NH2
modifications: staple 1-4, 4-11; also: later eluting HPLC isomer
B24: the 50% inhibitory concentration (IC50) in test [5] came to 430 nM. The same molecule registered an EC50 in test [2] of 301 nM.

B25: I-629 (peptide)
peptide: Ac-[αAllylPro]DL[B5(4)]DEAAF[Cit][S8]F[Bta]-NH2
modifications: staple 1-4, 4-11
In the case of B25, the EC50 in test [3] was 685 nM. In test [4], this molecule came in with a concentration for half-maximal inhibition (IC50) of 36 nM.

B26: I-628 (peptide)
peptide: Ac-[αAllylPro]DL[B5(4)]DEAAF[Cit][S8]F[Bta]-NH2
modifications: staple 1-4, 4-11
On to B26, for which the half-maximal effective concentration (EC50) in test [3] was 713 nM. This molecule returned an IC50 in test [4] of 60 nM.

B27: I-974 (peptide)
peptide: Ac-[αAllylPro]D[tBuAla][B5(4)]D[EtGA]AAFS[PyrS2″][3Thi][Bta]S-NH2
modifications: staple 1-4, 4-11; also: earlier eluting HPLC staple isomer
B27 gave an IC50 in test [1] of 1780 nM. Also, in test [2], the EC50 was found to be 1780 nM.

B28: I-1020 (peptide)
peptide: Ac-[αAllylPro]D[tBuAla][B5(5)]DNAAFS[PyrS2″][Phe(2-Cl)][Bta]S-NH2
modifications: staple 1-4, 4-11
For the molecule B28, in test [4], the IC50 amounted to 52 nM. Further, in test [6], the EC50 amounted to 52 nM.
